Experimental data from publication PMC11948756, “The molecular properties of the bHLH TCF4 protein as an intrinsically disordered hub transcription factor” (Cell Communication and Signaling : CCS, 2025).

Molecular target: the molecule itself
Experiment: native gel or EMSA + SEC + AUC; free TCF4 and TCF4 with E-box dsDNA; buffer S (20 mM Tris-HCl, 150 mM NaCl, 2 mM TCEP, pH 7.5); SV-AUC at 20 °C, 2.5, 5.0 and 7.5 µM dTCF4, molecular weight fixed at that of the dimer (96.5 kDa); SEC on Superdex 200 Increase 10/300; native PAGE on 5% gel in 0.5 x TBE at 4 °C

B1: Transcription factor 4 (TCF4), human isoform I- (natural protein, UniProt P15884-16 1-451, looked up)
chain: MQDGHHSSDPWSSSSGMNQPGYAGMLGNSSHIPQSSSYCSLHPHERLSYPSHSSADINSSLPPMSTFHRSGTNHYSTSSCTPPANGTDSIMANRGSGAAGSSQTGDALGKALASIYSPDHTNNSFSSNPSTPVGSPPSLSAGTAVWSRNGGQASSSPNYEGPLHSLQSRIEDRLERLDDAIHVLRNHAVGPSTAMPGGHGDMHGIIGPSHNGAMGGLGSGYGTGLLSANRHSLMVGTHREDGVALRGSHSLLPNQVPVPQLPVQSATSPDLNPPQDPYRGMPPGLQGQSVSSGSSEIKSDDEGDENLQDTKSSEDKKLDDDKKDIKSITSNNDDEDLTPEQKAEREKERRMANNARERLRVRDINEAFKELGRMVQLHLKSDKPQTKLLILHQAVAVILSLEQQVRERNLNPKAACLKRREEEKVSSEPPPLSLAGPHPGMGDASNHMGQM
notes: Transcription factor 4 (TCF4), human, isoform I- (UniProt P15884-16), full length; lacks amino acids 1-216 of the canonical isoform B- (P15884-1); bHLH domain at residues 348-401; dimer 96.5 kDa; numbers count on: isoform I- (P15884-16); cDNA synthesised and codon-optimised, cloned into pET-SUMO; also called TCF4 I-; dTCF4 (dimeric TCF4); source: E. coli ArcticExpress, purified (Ni-NTA with 6 M …)
B1: binds.
